By Kd is commonly meant the concentration at which binding is half-saturated. By koff is commonly meant the rate constant with which the complex falls apart. By kon is commonly meant the second-order rate constant of association.

From patent US20230159631A1 (ME THERAPEUTICS, published 2023) come the findings set out here.

Experiment [1] has as its target T1, recombinant human G-CSF (Genscript) (human, UniProt P09919-2 31-204, limits assumed).
T1 construct: also called hG-CSF; granulocyte colony stimulating factor
T1 sequence (looked up): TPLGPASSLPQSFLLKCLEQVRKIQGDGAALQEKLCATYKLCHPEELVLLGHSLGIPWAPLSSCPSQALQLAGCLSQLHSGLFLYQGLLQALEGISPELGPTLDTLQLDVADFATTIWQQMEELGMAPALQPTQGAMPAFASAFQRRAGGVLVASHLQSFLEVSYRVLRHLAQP
The experiment can be described thus: SPR (Antigen binding (SPR)); antibody captured on an anti-Fc surface, antigen flowed over.

Experiment [2] deals with T1, recombinant human G-CSF (Genscript). Kind of experiment: SPR (Antigen binding (SPR)); antibody captured on an anti-Fc surface, antigen flowed over; column head Koff (10-4 x s-1).
For experiment [3] the target is unchanged. Kind of experiment: SPR (ProteOn), supernatant captured on anti-mouse Fc, human G-CSF analyte, average of two injections. How it is done: (§1) Affinities of clones 2F6, 1B11, 3G5, 10B9, 9B7, 10G1, and 3B3 were measured by SPR. The work was carried out at the National Research Council of Canada (Montreal, Quebec).
(§2) 2.5% supernatants (except variants 1B11.2 and 10B9.1.2 used 4%) were captured on an anti-mouse Fc antibody, flowed with a 30, 10, 3.33, 1.11, and 0.37 nM concentration series of human G-CSF with buffer blank. Association (ka) and dissociation (kd) rates were measured using a BioRad ProteOn™ instrument. Affinity (KD) was calculated as […].

For experiment [4] the target is unchanged. The experiment can be described thus: SPR (ProteOn), supernatant captured on anti-mouse Fc, human G-CSF analyte, injection #2. As to the method: as §1, §2
For experiment [5] the target is unchanged. The experiment can be described thus: SPR (ProteOn), supernatant captured on anti-mouse Fc, human G-CSF analyte, injection #1. How it is done:
as §1, §2

B1: anti-G-CSF antibody clone 1B11 (antibody, V domains shown)
VH: QVHLQQSGAELARPGASVKMSCKASGYTFPIYTMHWIKQRPGQGLEWIGYINPSIGYANYNQKFRDKATLTADKSSSTAYMQLSSLTSEDSAVYYCARGGYGDSLFAYWGQGTLVTVSA
VL: DIVMTQAAFSNPVTLGTSASISCRSSKSLLHSNGITYLYWYLQKPGQSPQLLIYQMSNLASGVPDRFSSSGSGTDFTLRISRVEAEDVGVYYCAQNLELPYTFGGGTKLEIK
notes: Mouse hybridoma monoclonal antibody; also called 1B11.2; 3A3
For B1, the Kd in experiment [1] was 0.06 nM; in experiment [3], 0.064 nM; in experiment [4], 0.0622 nM; in experiment [5], 0.0663 nM. Further, the koff in experiment [2] was found to be 5e-05 s⁻¹; in experiment [4], 4.72e-05 s⁻¹; in experiment [5], 5.15e-05 s⁻¹. Further, the results for the kon in experiment [4] and in experiment [5] were 758000 M⁻¹ s⁻¹ and 777000 M⁻¹ s⁻¹, respectively.

B2: anti-G-CSF antibody clone 3B3 (antibody, V domains shown)
VH: QVQLQQSGAELARPGASVKMSCKASGYTFTPYTMHWVKQRPGQDLEWIGYINPSINYTNYNQKFKDKATLTADKSSSTAYMQLSSLTSEDSAVYFCARRGSYGNFDYWGQGTTLTVSS
VL: DIVMTQAAFSNPVTLGTSASISCRSNKSLLHSNGITYLYWYLQKPGQSPQLLIYQMSNLASGVPDRFSSSGSGTDFTLRISRVEAEDVGVYYCAQNLELPLTFGAGTKLELK
notes: Mouse hybridoma monoclonal antibody; also called 3B3.2; 3B2
As to B2, the Kd in experiment [3] came out at 0.31 nM. Also, in experiment [4], the Kd was 0.293 nM, the koff worked out at 0.000286 s⁻¹ and the kon was found to be 976000 M⁻¹ s⁻¹. Further, in experiment [5], the Kd turned out to be 0.329 nM, the dissociation rate constant (koff) was 0.000301 s⁻¹ and the kon is 914000 M⁻¹ s⁻¹.

B3: humanized 1B11 antibody variant 9 (h1L/h3H) (antibody, V domains shown)
VH: QVQLVQSGAEVKKPGASVKVSCKASGYTFPIYTMHWIKQAPGQGLEWIGYINPSIGYANYNQKFRDRATLTADKSTSTAYMELSSLRSEDTAVYYCARGGYGDSLFAYWGQGTLVTVSS
VL: DIVMTQSPLSLPVTPGEPASISCRSSKSLLHSNGITYLYWYLQKPGQSPQLLIYQMSNLASGVPDRFSGSGSGTDFTLKISRVEAEDVGVYYCAQNLELPYTFGQGTKLEIK
notes: variable domains only; also called clone 9
Consider B3, for which the Kd in experiment [1] came out at 0.19 nM. In experiment [2], the koff was 0.00017 s⁻¹.

B4: 1B11 antibody variant 1 (cL/cH) (antibody, V domains shown)
VH: QVHLQQSGAELARPGASVKMSCKASGYTFPIYTMHWIKQRPGQGLEWIGYINPSIGYANYNQKFRDKATLTADKSSSTAYMQLSSLTSEDSAVYYCARGGYGDSLFAYWGQGTLVTVSA
VL: DIVMTQAAFSNPVTLGTSASISCRSSKSLLHSNGITYLYWYLQKPGQSPQLLIYQMSNLASGVPDRFSSSGSGTDFTLRISRVEAEDVGVYYCAQNLELPYTFGGGTKLEIK
notes: also called clone 1; chimeric 1B11
Regarding B4, in experiment [1], the Kd came out at 0.1 nM. In addition, the koff in experiment [2] came to 0.00012 s⁻¹.

B5: humanized 1B11 antibody variant 14 (h2L/h3H) (antibody, V domains shown)
VH: QVQLVQSGAEVKKPGASVKVSCKASGYTFPIYTMHWIKQAPGQGLEWIGYINPSIGYANYNQKFRDRATLTADKSTSTAYMELSSLRSEDTAVYYCARGGYGDSLFAYWGQGTLVTVSS
VL: DIVMTQSPLSLPVTPGEPASISCRSSKSLLHSNGITYLYWYLQKPGQSPQLLIYQMSNLASGVPDRFSSSGSGTDFTLKISRVEAEDVGVYYCAQNLELPYTFGQGTKLEIK
notes: variable domains only; also called clone 14
For B5, in experiment [1], the Kd was determined as 0.15 nM. The koff in experiment [2] stood at 0.00013 s⁻¹.

B6: humanized 1B11 antibody variant 8 (h1L/h2H) (antibody, V domains shown)
VH: QVQLVQSGAEVKKPGASVKVSCKASGYTFPIYTMHWIRQAPGQGLEWIGYINPSIGYANYNQKFRDRATLTADTSTSTAYMELSSLRSEDTAVYYCARGGYGDSLFAYWGQGTLVTVSS
VL: DIVMTQSPLSLPVTPGEPASISCRSSKSLLHSNGITYLYWYLQKPGQSPQLLIYQMSNLASGVPDRFSGSGSGTDFTLKISRVEAEDVGVYYCAQNLELPYTFGQGTKLEIK
notes: variable domains only; also called clone 8
Take B6: the Kd in experiment [1] is 0.29 nM. Besides, the koff in experiment [2] stood at 0.00017 s⁻¹.

B7: humanized 1B11 antibody variant 7 (h1L/h1H) (antibody, V domains shown)
VH: QVQLVQSGAEVKKPGASVKVSCKASGYTFPIYTMHWVRQAPGQGLEWMGYINPSIGYANYNQKFRDRVTITADTSTSTAYMELSSLRSEDTAVYYCARGGYGDSLFAYWGQGTLVTVSS
VL: DIVMTQSPLSLPVTPGEPASISCRSSKSLLHSNGITYLYWYLQKPGQSPQLLIYQMSNLASGVPDRFSGSGSGTDFTLKISRVEAEDVGVYYCAQNLELPYTFGQGTKLEIK
notes: also called clone 7; Variant 7 anti-G-CSF antibody
With B7, in experiment [1], the Kd came out at 0.29 nM. Besides, in experiment [2], the koff was 0.00017 s⁻¹.

B8: humanized 1B11 antibody variant 10 (h1L/h4H) (antibody, V domains shown)
VH: QVHLVQSGAEVKKPGASVKVSCKASGYTFPIYTMHWIKQAPGQGLEWIGYINPSIGYANYNQKFRDKATLTADKSTSTAYMELSSLRSEDTAVYYCARGGYGDSLFAYWGQGTLVTVSS
VL: DIVMTQSPLSLPVTPGEPASISCRSSKSLLHSNGITYLYWYLQKPGQSPQLLIYQMSNLASGVPDRFSGSGSGTDFTLKISRVEAEDVGVYYCAQNLELPYTFGQGTKLEIK
notes: variable domains only; also called clone 10
Take B8: in experiment [1], the Kd was found to be 0.16 nM. In experiment [2], the koff worked out at 0.00015 s⁻¹.

B9: humanized 1B11 antibody variant 13 (h2L/h2H) (antibody, V domains shown)
VH: QVQLVQSGAEVKKPGASVKVSCKASGYTFPIYTMHWIRQAPGQGLEWIGYINPSIGYANYNQKFRDRATLTADTSTSTAYMELSSLRSEDTAVYYCARGGYGDSLFAYWGQGTLVTVSS
VL: DIVMTQSPLSLPVTPGEPASISCRSSKSLLHSNGITYLYWYLQKPGQSPQLLIYQMSNLASGVPDRFSSSGSGTDFTLKISRVEAEDVGVYYCAQNLELPYTFGQGTKLEIK
notes: variable domains only; also called clone 13
Consider B9, for which the Kd in experiment [1] was 0.2 nM. Moreover, in experiment [2], the koff was 0.00012 s⁻¹.

B10: humanized 1B11 antibody variant 15 (h2L/h4H) (antibody, V domains shown)
VH: QVHLVQSGAEVKKPGASVKVSCKASGYTFPIYTMHWIKQAPGQGLEWIGYINPSIGYANYNQKFRDKATLTADKSTSTAYMELSSLRSEDTAVYYCARGGYGDSLFAYWGQGTLVTVSS
VL: DIVMTQSPLSLPVTPGEPASISCRSSKSLLHSNGITYLYWYLQKPGQSPQLLIYQMSNLASGVPDRFSSSGSGTDFTLKISRVEAEDVGVYYCAQNLELPYTFGQGTKLEIK
notes: variable domains only; also called clone 15
As to B10, the Kd in experiment [1] came out at 0.12 nM. In addition, the koff in experiment [2] came out at 0.0001 s⁻¹.
